This is an account of results in publication PMC11580892.

The target in the assay is T1, TRPV2-MBP (wild-type TRPV2 with an N-terminal maltose binding protein tag), Q9WUD2.
T1 chain: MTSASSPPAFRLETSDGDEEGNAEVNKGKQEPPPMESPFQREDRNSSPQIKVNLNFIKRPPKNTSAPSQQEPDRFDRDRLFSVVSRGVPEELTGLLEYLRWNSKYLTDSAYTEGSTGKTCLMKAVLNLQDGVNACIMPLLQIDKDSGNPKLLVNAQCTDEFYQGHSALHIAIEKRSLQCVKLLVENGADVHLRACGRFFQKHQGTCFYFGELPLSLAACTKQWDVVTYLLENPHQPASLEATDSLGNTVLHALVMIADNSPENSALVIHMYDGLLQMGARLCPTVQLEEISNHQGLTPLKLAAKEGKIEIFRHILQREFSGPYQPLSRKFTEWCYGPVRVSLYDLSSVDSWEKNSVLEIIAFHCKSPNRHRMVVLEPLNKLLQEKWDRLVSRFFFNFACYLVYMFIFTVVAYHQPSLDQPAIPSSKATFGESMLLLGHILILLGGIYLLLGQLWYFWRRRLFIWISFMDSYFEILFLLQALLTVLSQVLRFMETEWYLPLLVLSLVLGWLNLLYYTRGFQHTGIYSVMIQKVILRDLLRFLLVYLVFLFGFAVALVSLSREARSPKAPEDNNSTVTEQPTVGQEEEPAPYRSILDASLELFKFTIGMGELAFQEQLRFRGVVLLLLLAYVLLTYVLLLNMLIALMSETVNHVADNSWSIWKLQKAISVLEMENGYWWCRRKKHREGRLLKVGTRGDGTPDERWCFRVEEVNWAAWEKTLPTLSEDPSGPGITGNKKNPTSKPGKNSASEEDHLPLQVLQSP
Description: SEC. The settings on record: remark: other sources report otherwise.

B1: TRPV2-MBP (wild-type TRPV2 with an N-terminal maltose binding protein tag), Q9WUD2 1-761 (natural protein)
chain: MTSASSPPAFRLETSDGDEEGNAEVNKGKQEPPPMESPFQREDRNSSPQIKVNLNFIKRPPKNTSAPSQQEPDRFDRDRLFSVVSRGVPEELTGLLEYLRWNSKYLTDSAYTEGSTGKTCLMKAVLNLQDGVNACIMPLLQIDKDSGNPKLLVNAQCTDEFYQGHSALHIAIEKRSLQCVKLLVENGADVHLRACGRFFQKHQGTCFYFGELPLSLAACTKQWDVVTYLLENPHQPASLEATDSLGNTVLHALVMIADNSPENSALVIHMYDGLLQMGARLCPTVQLEEISNHQGLTPLKLAAKEGKIEIFRHILQREFSGPYQPLSRKFTEWCYGPVRVSLYDLSSVDSWEKNSVLEIIAFHCKSPNRHRMVVLEPLNKLLQEKWDRLVSRFFFNFACYLVYMFIFTVVAYHQPSLDQPAIPSSKATFGESMLLLGHILILLGGIYLLLGQLWYFWRRRLFIWISFMDSYFEILFLLQALLTVLSQVLRFMETEWYLPLLVLSLVLGWLNLLYYTRGFQHTGIYSVMIQKVILRDLLRFLLVYLVFLFGFAVALVSLSREARSPKAPEDNNSTVTEQPTVGQEEEPAPYRSILDASLELFKFTIGMGELAFQEQLRFRGVVLLLLLAYVLLTYVLLLNMLIALMSETVNHVADNSWSIWKLQKAISVLEMENGYWWCRRKKHREGRLLKVGTRGDGTPDERWCFRVEEVNWAAWEKTLPTLSEDPSGPGITGNKKNPTSKPGKNSASEEDHLPLQVLQSP
As a reminder, the stoichiometry N is the number of molecules, sites or subunits per partner or assembly. Regarding B1, the stoichiometry N was determined as 4.
